In patent US20200024348A1 (Alector, published 2020):

Molecular target: T1, histidine-tagged human SORT1 (R&D Systems) (human, UniProt Q99523 78-755)
T1 construct: Bought recombinant protein; also called His-tagged human SORT1; not shown: histidine tag
T1 sequence: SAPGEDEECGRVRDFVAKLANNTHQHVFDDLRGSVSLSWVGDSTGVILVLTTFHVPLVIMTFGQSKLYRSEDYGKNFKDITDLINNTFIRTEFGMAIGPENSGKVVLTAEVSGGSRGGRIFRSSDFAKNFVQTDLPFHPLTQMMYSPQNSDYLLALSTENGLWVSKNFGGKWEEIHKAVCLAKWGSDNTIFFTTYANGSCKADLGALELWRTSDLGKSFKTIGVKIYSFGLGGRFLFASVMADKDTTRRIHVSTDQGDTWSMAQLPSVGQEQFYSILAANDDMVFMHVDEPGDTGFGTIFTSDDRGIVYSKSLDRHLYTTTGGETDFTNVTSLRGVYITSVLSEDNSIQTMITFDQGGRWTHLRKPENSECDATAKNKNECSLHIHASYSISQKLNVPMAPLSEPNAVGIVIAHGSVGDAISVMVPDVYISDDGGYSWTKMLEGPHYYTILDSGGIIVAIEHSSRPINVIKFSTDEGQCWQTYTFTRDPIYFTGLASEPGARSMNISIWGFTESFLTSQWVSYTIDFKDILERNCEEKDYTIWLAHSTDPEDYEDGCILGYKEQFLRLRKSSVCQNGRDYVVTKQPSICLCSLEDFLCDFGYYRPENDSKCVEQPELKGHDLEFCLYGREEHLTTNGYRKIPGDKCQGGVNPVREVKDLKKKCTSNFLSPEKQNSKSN
Experiment: BLI (Octet RED96), antibody captured on anti-human IgG Fc sensor, 20 nM His-tagged human SORT1, 1:1 fit
Procedure: The G1m3 or G1m(f) allotype with L234A/L235A/P331S (“LALAPS” motif) mutations was used as a background (Jefferis R and Lefranc M-P, Mabs, 2009 July-August; 1(4): 332-338). […] Bio-layer interferometry (BLI) data was collected at a rate of 5 Hz at 25° C. on a Pall ForteBio Octet RED96 instrument. Data analysis was performed using ForteBio Data Analysis Software, version 9.0. Standard kinetic buffer (PBS, 0.1 BSA, 0.02 Tween-20, pH 7.2) was used for the assay and for preparing reagents. For all assays, sensor tips were equilibrated in buffer prior to analysis.
Twenty nM histidine-tagged human SORT1 (R&D Systems, Minneapolis, Minn.) was then bound to the captured anti-SORT1 surface (200 s association time, 1200 s dissociation time). […] Full, local fitting using a 1:1 interaction model was applied to extract association and dissociation rate constants (kₐ and kd, respectively) for each N33 mutant. Affinity constants (KD) were calculated from the ratio […]. Different amino acid substitutions were made at N33 and tested for binding to SORT1 in an off-rate screen (under non-stress conditions) as shown in Table 9.

| Binder | Kd [nM] | koff [s⁻¹] | kon [M⁻¹ s⁻¹] |
| --- | --- | --- | --- |
| S-60-15 [N33 (wt)] huIgG1 LALAPS (antibody, V domains shown, huIgG1 with L234A/L235A/P331S (LALAPS)) VH: QVQLQESGPGLVKPSETLSLTCAVSGYSISSGYYWGWIRQPPGKGLEWIGTIYHSGSTYYNPSLKSRVTISVDTSKNQFSLKLSSVTAADTAVYYCARQGSIKQGYYGMDVWGQGTTVTVSS VL: not shown | 0.27 | – | – |
| S-60-15.2 [N33S] (antibody, human IgG1, kappa, L234A L235A, V domains shown, huIgG1 LALAPS) VH: QVQLQESGPGLVKPSETLSLTCAVSGYSISSGYYWGWIRQPPGKGLEWIGTIYHSGSTYYNPSLKSRVTISVDTSKNQFSLKLSSVTAADTAVYYCARQGSIKQGYYGMDVWGQGTTVTVSS VL: DIVMTQSPLSLPVTPGEPASISCRSSQSLLRSSGYNYLDWYLQKPGQSPQLLIYLGSNRASGVPDRFSGSGSGTDFTLKISRAEAEDVGVYYCMQQQEAPLTFGGGTKVEIKR | 0.44 | 0.000247 | 563000 |
| S-60-15.3 [N33G] (antibody, human IgG1, kappa, L234A L235A, V domains shown, huIgG1 LALAPS) VH: QVQLQESGPGLVKPSETLSLTCAVSGYSISSGYYWGWIRQPPGKGLEWIGTIYHSGSTYYNPSLKSRVTISVDTSKNQFSLKLSSVTAADTAVYYCARQGSIKQGYYGMDVWGQGTTVTVSS VL: DIVMTQSPLSLPVTPGEPASISCRSSQSLLRSGGYNYLDWYLQKPGQSPQLLIYLGSNRASGVPDRFSGSGSGTDFTLKISRAEAEDVGVYYCMQQQEAPLTFGGGTKVEIKR | 0.825 | 0.000411 | 498000 |
| S-60-15.4 [N33R] (antibody, human IgG1, kappa, L234A L235A, V domains shown, huIgG1 LALAPS) VH: QVQLQESGPGLVKPSETLSLTCAVSGYSISSGYYWGWIRQPPGKGLEWIGTIYHSGSTYYNPSLKSRVTISVDTSKNQFSLKLSSVTAADTAVYYCARQGSIKQGYYGMDVWGQGTTVTVSS VL: DIVMTQSPLSLPVTPGEPASISCRSSQSLLRSRGYNYLDWYLQKPGQSPQLLIYLGSNRASGVPDRFSGSGSGTDFTLKISRAEAEDVGVYYCMQQQEAPLTFGGGTKVEIKR | 0.88 | 0.00046 | 524000 |
| S-60-15.6 [N33H] (antibody, human IgG1, kappa, L234A L235A, V domains shown, huIgG1 LALAPS) VH: QVQLQESGPGLVKPSETLSLTCAVSGYSISSGYYWGWIRQPPGKGLEWIGTIYHSGSTYYNPSLKSRVTISVDTSKNQFSLKLSSVTAADTAVYYCARQGSIKQGYYGMDVWGQGTTVTVSS VL: DIVMTQSPLSLPVTPGEPASISCRSSQSLLRSHGYNYLDWYLQKPGQSPQLLIYLGSNRASGVPDRFSGSGSGTDFTLKISRAEAEDVGVYYCMQQQEAPLTFGGGTKVEIKR | 0.823 | 0.00046 | 548000 |
| S-60-15.7 [N33K] (antibody, human IgG1, kappa, L234A L235A, V domains shown, huIgG1 LALAPS) VH: QVQLQESGPGLVKPSETLSLTCAVSGYSISSGYYWGWIRQPPGKGLEWIGTIYHSGSTYYNPSLKSRVTISVDTSKNQFSLKLSSVTAADTAVYYCARQGSIKQGYYGMDVWGQGTTVTVSS VL: DIVMTQSPLSLPVTPGEPASISCRSSQSLLRSKGYNYLDWYLQKPGQSPQLLIYLGSNRASGVPDRFSGSGSGTDFTLKISRAEAEDVGVYYCMQQQEAPLTFGGGTKVEIKR | 0.965 | 0.000547 | 563000 |
| S-60-15.8 [N33Q] (antibody, human IgG1, kappa, L234A L235A, V domains shown, huIgG1 LALAPS) VH: QVQLQESGPGLVKPSETLSLTCAVSGYSISSGYYWGWIRQPPGKGLEWIGTIYHSGSTYYNPSLKSRVTISVDTSKNQFSLKLSSVTAADTAVYYCARQGSIKQGYYGMDVWGQGTTVTVSS VL: DIVMTQSPLSLPVTPGEPASISCRSSQSLLRSQGYNYLDWYLQKPGQSPQLLIYLGSNRASGVPDRFSGSGSGTDFTLKISRAEAEDVGVYYCMQQQEAPLTFGGGTKVEIKR | 0.905 | 0.000653 | 609000 |
| S-60-15.9 [N33Y] (antibody, human IgG1, kappa, L234A L235A, V domains shown, huIgG1 LALAPS) VH: QVQLQESGPGLVKPSETLSLTCAVSGYSISSGYYWGWIRQPPGKGLEWIGTIYHSGSTYYNPSLKSRVTISVDTSKNQFSLKLSSVTAADTAVYYCARQGSIKQGYYGMDVWGQGTTVTVSS VL: DIVMTQSPLSLPVTPGEPASISCRSSQSLLRSYGYNYLDWYLQKPGQSPQLLIYLGSNRASGVPDRFSGSGSGTDFTLKISRAEAEDVGVYYCMQQQEAPLTFGGGTKVEIKR | 1.28 | 0.000675 | 511000 |
| S-60-15.10 [N33E] (antibody, human IgG1, kappa, L234A L235A, V domains shown, huIgG1 LALAPS) VH: QVQLQESGPGLVKPSETLSLTCAVSGYSISSGYYWGWIRQPPGKGLEWIGTIYHSGSTYYNPSLKSRVTISVDTSKNQFSLKLSSVTAADTAVYYCARQGSIKQGYYGMDVWGQGTTVTVSS VL: DIVMTQSPLSLPVTPGEPASISCRSSQSLLRSEGYNYLDWYLQKPGQSPQLLIYLGSNRASGVPDRFSGSGSGTDFTLKISRAEAEDVGVYYCMQQQEAPLTFGGGTKVEIKR | 2.01 | ~0.00136 | 676000 |
| S-60-15.11 [N33W] (antibody, human IgG1, kappa, L234A L235A, V domains shown, huIgG1 LALAPS) VH: QVQLQESGPGLVKPSETLSLTCAVSGYSISSGYYWGWIRQPPGKGLEWIGTIYHSGSTYYNPSLKSRVTISVDTSKNQFSLKLSSVTAADTAVYYCARQGSIKQGYYGMDVWGQGTTVTVSS VL: DIVMTQSPLSLPVTPGEPASISCRSSQSLLRSWGYNYLDWYLQKPGQSPQLLIYLGSNRASGVPDRFSGSGSGTDFTLKISRAEAEDVGVYYCMQQQEAPLTFGGGTKVEIKR | 0.96 | 0.000579 | 601000 |
| S-60-15.12 [N33F] (antibody, human IgG1, kappa, L234A L235A, V domains shown, huIgG1 LALAPS) VH: QVQLQESGPGLVKPSETLSLTCAVSGYSISSGYYWGWIRQPPGKGLEWIGTIYHSGSTYYNPSLKSRVTISVDTSKNQFSLKLSSVTAADTAVYYCARQGSIKQGYYGMDVWGQGTTVTVSS VL: DIVMTQSPLSLPVTPGEPASISCRSSQSLLRSFGYNYLDWYLQKPGQSPQLLIYLGSNRASGVPDRFSGSGSGTDFTLKISRAEAEDVGVYYCMQQQEAPLTFGGGTKVEIKR | 2.91 | 0.000816 | 280000 |
| S-60-15.13 [N33I] (antibody, human IgG1, kappa, L234A L235A, V domains shown, huIgG1 LALAPS) VH: QVQLQESGPGLVKPSETLSLTCAVSGYSISSGYYWGWIRQPPGKGLEWIGTIYHSGSTYYNPSLKSRVTISVDTSKNQFSLKLSSVTAADTAVYYCARQGSIKQGYYGMDVWGQGTTVTVSS VL: DIVMTQSPLSLPVTPGEPASISCRSSQSLLRSIGYNYLDWYLQKPGQSPQLLIYLGSNRASGVPDRFSGSGSGTDFTLKISRAEAEDVGVYYCMQQQEAPLTFGGGTKVEIKR | 0.46 | 0.000228 | 491000 |
| S-60-15.14 [N33V] (antibody, human IgG1, kappa, L234A L235A, V domains shown, huIgG1 LALAPS) VH: QVQLQESGPGLVKPSETLSLTCAVSGYSISSGYYWGWIRQPPGKGLEWIGTIYHSGSTYYNPSLKSRVTISVDTSKNQFSLKLSSVTAADTAVYYCARQGSIKQGYYGMDVWGQGTTVTVSS VL: DIVMTQSPLSLPVTPGEPASISCRSSQSLLRSVGYNYLDWYLQKPGQSPQLLIYLGSNRASGVPDRFSGSGSGTDFTLKISRAEAEDVGVYYCMQQQEAPLTFGGGTKVEIKR | 0.69 | 0.000306 | 445000 |
| S-60-15.15 [N33A] (antibody, human IgG1, kappa, L234A L235A, V domains shown, huIgG1 LALAPS) VH: QVQLQESGPGLVKPSETLSLTCAVSGYSISSGYYWGWIRQPPGKGLEWIGTIYHSGSTYYNPSLKSRVTISVDTSKNQFSLKLSSVTAADTAVYYCARQGSIKQGYYGMDVWGQGTTVTVSS VL: DIVMTQSPLSLPVTPGEPASISCRSSQSLLRSAGYNYLDWYLQKPGQSPQLLIYLGSNRASGVPDRFSGSGSGTDFTLKISRAEAEDVGVYYCMQQQEAPLTFGGGTKVEIKR | 0.625 | 0.000315 | 493000 |
| S-60-15.16 [N33M] (antibody, human IgG1, kappa, L234A L235A, V domains shown, huIgG1 LALAPS) VH: QVQLQESGPGLVKPSETLSLTCAVSGYSISSGYYWGWIRQPPGKGLEWIGTIYHSGSTYYNPSLKSRVTISVDTSKNQFSLKLSSVTAADTAVYYCARQGSIKQGYYGMDVWGQGTTVTVSS VL: DIVMTQSPLSLPVTPGEPASISCRSSQSLLRSMGYNYLDWYLQKPGQSPQLLIYLGSNRASGVPDRFSGSGSGTDFTLKISRAEAEDVGVYYCMQQQEAPLTFGGGTKVEIKR | 0.85 | 0.000423 | 495000 |
| S-60-15.17 [N33L] (antibody, human IgG1, kappa, L234A L235A, V domains shown, huIgG1 LALAPS) VH: QVQLQESGPGLVKPSETLSLTCAVSGYSISSGYYWGWIRQPPGKGLEWIGTIYHSGSTYYNPSLKSRVTISVDTSKNQFSLKLSSVTAADTAVYYCARQGSIKQGYYGMDVWGQGTTVTVSS VL: DIVMTQSPLSLPVTPGEPASISCRSSQSLLRSLGYNYLDWYLQKPGQSPQLLIYLGSNRASGVPDRFSGSGSGTDFTLKISRAEAEDVGVYYCMQQQEAPLTFGGGTKVEIKR | 1.03 | 0.000425 | 412000 |
